Target: WT CCR5 (5555), HA-tagged, on transfected HEK293T cells (UniProt P51681)
Assay: competition assay, flow cytometry on cells
Conditions: DyLight488-LukE 595 nM, LukD DN 565 nM, read off a plot
[1] = 74.5 nM unlabeled LukE variant, parent: est. 13
[2] = 149 nM unlabeled LukE variant, parent: est. 11
[3] = 298 nM unlabeled LukE variant, parent: est. 10
[4] = 596 nM unlabeled LukE variant, parent: est. 9.2

Substance	response [1] [MFI]	response [2] [MFI]	response [3] [MFI]	response [4] [MFI]
WT LukE LukE/LukS^DR3 (DR3, residues 164 to 178, replaced by the corresponding region of LukS-PV)	15	12	11	9.7
WT LukE LukE/LukS^DR4 (DR4, residues 182 to 196, replaced by the corresponding region of LukS-PV)	12	9.9	9.3	8.3
WT LukE LukE/LukS^DR1 (DR1, residues 57 to 75, replaced by the corresponding region of LukS-PV)	19	18	15	14
WT LukE LukE/LukS^DR2 (DR2, residues 140 to 150, replaced by the corresponding region of LukS-PV)	13	11	9.8	9

— publication PMC5156306
